# Measured values as given in PMC9173704.
# Assays:
# [1] = target: plasminogen (Homo sapiens) (UniProt P00747); conditions: cited from earlier work
# [2] = target: recombinant mature PAM (Asn1-Gln351, plus (His)6) (Streptococcus pyogenes (GAS) strain AP53) (UniProt P49054)
# [3] = target: recombinant streptococcal enolase (Sen) from GAS strain AP53 (Streptococcus pyogenes (GAS) strain AP53)
# [4] = target: recombinant streptococcal enolase (Sen) from GAS strain AP53 (Streptococcus pyogenes (GAS) strain AP53); assay: ELISA; Sen coated on high protein binding 96-well plates overnight at 4°C; hPg added at 25°C for 1 h; detected with HRP-conjugated monoclonal mouse-anti hPg; saturation curve
# [5] = target: recombinant streptococcal enolase (Sen) from GAS strain AP53 (Streptococcus pyogenes (GAS) strain AP53); assay: SPR; Sen amine-coupled to a CM-5 chip (~1,000 RU); hPg as analyte, 9 to 2,400 nM; 25°C, HBS-EP+ (10 mM Na-Hepes/150 mM NaCl/3 mM EDTA/0.05% polysorbate 20, pH 7.4); equilibrium (affinity) fit
# [6] = target: recombinant streptococcal enolase (Sen) from GAS strain AP53 (Streptococcus pyogenes (GAS) strain AP53); assay: SEC-MALS; each protein 100 μl of 1 mg/ml on a WTC-030S5 column, PBS, pH 7.4, flow rate 0.5 ml/min
# [7] = target: recombinant streptococcal enolase (Sen) from GAS strain AP53 (Streptococcus pyogenes (GAS) strain AP53); assay: AUC; sedimentation velocity, 20°C, 50 mM Na phosphate/0.1 M NaCl, pH 7.4; 30,000 rpm for Sen, 35,000 rpm for hEno; three protein dilutions; no concentration-dependent dissociation down to at least 0.1 mg/ml
# Sequence of recombinant streptococcal enolase (Sen) from GAS strain AP53 (Streptococcus pyogenes (GAS) strain AP53) (A2RFE3 whole entry): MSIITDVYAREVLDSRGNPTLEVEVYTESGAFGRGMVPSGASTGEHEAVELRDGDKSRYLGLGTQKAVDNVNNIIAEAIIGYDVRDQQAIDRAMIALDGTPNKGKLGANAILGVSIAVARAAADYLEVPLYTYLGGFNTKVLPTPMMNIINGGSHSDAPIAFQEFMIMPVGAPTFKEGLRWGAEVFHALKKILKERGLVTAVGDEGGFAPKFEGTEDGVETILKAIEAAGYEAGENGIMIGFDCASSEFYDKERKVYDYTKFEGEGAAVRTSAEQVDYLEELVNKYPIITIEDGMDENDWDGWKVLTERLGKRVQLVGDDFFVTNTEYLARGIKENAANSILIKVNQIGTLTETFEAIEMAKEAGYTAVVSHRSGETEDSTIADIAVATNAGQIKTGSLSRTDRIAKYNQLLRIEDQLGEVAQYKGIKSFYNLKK
# Sequence of UniProt P00747 (P00747 20-810): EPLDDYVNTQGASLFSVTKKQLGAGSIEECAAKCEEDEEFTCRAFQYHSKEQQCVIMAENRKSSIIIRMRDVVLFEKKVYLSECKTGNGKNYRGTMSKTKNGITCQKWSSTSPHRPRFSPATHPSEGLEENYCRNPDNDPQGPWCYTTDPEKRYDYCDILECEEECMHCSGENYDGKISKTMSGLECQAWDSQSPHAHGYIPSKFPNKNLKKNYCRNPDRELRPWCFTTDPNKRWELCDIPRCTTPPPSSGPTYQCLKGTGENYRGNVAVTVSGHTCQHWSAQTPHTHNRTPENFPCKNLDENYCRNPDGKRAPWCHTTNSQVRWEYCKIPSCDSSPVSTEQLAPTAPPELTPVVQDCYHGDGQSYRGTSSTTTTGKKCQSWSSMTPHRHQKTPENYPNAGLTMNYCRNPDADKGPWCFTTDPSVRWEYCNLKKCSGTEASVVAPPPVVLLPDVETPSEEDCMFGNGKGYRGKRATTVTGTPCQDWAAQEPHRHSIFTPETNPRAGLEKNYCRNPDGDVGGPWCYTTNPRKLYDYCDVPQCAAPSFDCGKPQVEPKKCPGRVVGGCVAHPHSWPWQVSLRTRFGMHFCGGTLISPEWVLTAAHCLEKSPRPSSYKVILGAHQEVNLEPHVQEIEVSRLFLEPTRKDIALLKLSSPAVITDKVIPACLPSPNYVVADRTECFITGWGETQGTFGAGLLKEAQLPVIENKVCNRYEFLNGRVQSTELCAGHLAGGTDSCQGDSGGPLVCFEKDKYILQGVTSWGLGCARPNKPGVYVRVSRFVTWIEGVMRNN
substance,measurement,setting,value
plasminogen-binding M-protein (PAM) (from UniProt P49054),Kd,[1],1 nM
recombinant human plasminogen (hPg) (natural protein),"rate of activation of hPg by tPA on PAM-coated plates against free hPg, hydrolysis of S2251",[2],2.5 fold
same,"rate of activation of hPg by tPA with Sen bound to DOPG vesicles against vesicles without Sen, hydrolysis of S2251",[3],6 to 8 fold
same,C50,[4],125 nM
same,C50,[5],111 nM
recombinant streptococcal enolase (Sen) from GAS strain AP53 (enzyme),stoichiometry N,[6],8
same,stoichiometry N,[7],8
